# Results from PMC11973430, “Rubisco packaging and stoichiometric composition of the native β-carboxysome in Synechococcus elongatus PCC7942” (Plant Physiology, 2024).
# B1: Carboxysome scaffolding (linker) protein CcmM of Synechococcus elongatus PCC7942 (natural protein, UniProt Q03513-2 1-324, looked up)
# chain: MSAYNGQGRLSSEVITQVRSLLNQGYRIGTEHADKRRFRTSSWQPCAPIQSTNERQVLSELENCLSEHEGEYVRLLGIDTNTRSRVFEALIQRPDGSVPESLGSQPVAVASGGGRQSSYASVSGNLSAEVVNKVRNLLAQGYRIGTEHADKRRFRTSSWQSCAPIQSSNERQVLAELENCLSEHEGEYVRLLGIDTASRSRVFEALIQDPQGPVGSAKAAAAPVSSATPSSHSYTSNGSSSSDVAGQVRGLLAQGYRISAEVADKRRFQTSSWQSLPALSGQSEATVLPALESILQEHKGKYVRLIGIDPAARRRVAELLIQKP
# notes: CcmM, Synechococcus elongatus PCC7942, GenBank AAA27306.1; present in the native β-carboxysome as two isoforms, the full-length 58-kDa CcmM58 and the 35-kDa truncated CcmM35 (three SSUL domains each); Mixture of CcmM35 and CcmM58 in the native carboxysome; also called CcmM35; CcmM58; source: endogenous, inside β-carboxysomes purified from Syn7942 (sucrose gradient ultracentrifugation)
# Molecular target: T1, Rubisco L8S8 hexadecamer (Form IB ribulose-1,5-bisphosphate carboxylase/oxygenase) of Synechococcus elongatus … (Synechococcus elongatus PCC7942 …, UniProt Q31NB3 1-472; Q31NB2 1-111)
# T1 construct: Rubisco large subunit RbcL, Synechococcus elongatus PCC7942, GenBank ABB57456.1; 52.4 kDa; Rubisco small subunit RbcS, Synechococcus elongatus PCC7942, GenBank ABB57457.1; 13.3 kDa; Native holoenzyme imaged inside isolated β-carboxysomes; not separated from the other carboxysome proteins; also called Rubisco complex; Form IB Rubisco; source: endogenous, inside β-carboxysomes purified from Syn7942 …
# T1 sequence (Q31NB2 whole entry, chain 2 of 2, other chains not shown): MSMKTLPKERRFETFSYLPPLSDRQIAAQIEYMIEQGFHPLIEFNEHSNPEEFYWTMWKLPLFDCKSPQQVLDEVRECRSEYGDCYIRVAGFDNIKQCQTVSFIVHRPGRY
# Assay: cryo-EM structure; cryoET and subtomogram averaging (emClarity, D4 symmetry) of Rubisco inside isolated native Syn7942 β-carboxysomes (185 carboxysomes) in TEMB buffer (10 mM Tris-HCl pH 8.0, 1 mM EDTA, 10 mM MgCl2, 20 mM NaHCO3); 3.5 Å
# Details: partners not purified
binder,measurement,value
B1,stoichiometry N,4 CcmM SSUL domains per Rubisco L8S8
